Assay results taken from patent US20110275559A1, “Long-Acting Y2 and/or Y4 Receptor Agonists” (Novo Nordisk A/S, priority 2008, published 2011).
*1 amine or outer side, *2 acyl side, *3 side chain or, on linkers, in order; H or OH if unused. Where a SMILES comes first, the peptide text is derived from it. Where no end group is shown, it is not given here. Side-chain parts run from the residue outwards. The star is where a group is joined. C20 diacid = O=C(O)CCCCCCCCCCCCCCCCCCC(=O)*; C18 diacid = O=C(O)CCCCCCCCCCCCCCCCC(=O)*; γGlu = O=C(O)[C@H](CCC(=O)[*:2])N[*:1]; Trx = NC[C@H]1CC[C@H](C(=O)O)CC1; AEEA = NCCOCCOCC(=O)O

Columns and labels:
[1] = in vivo; details: Göttingen, minipig, iv
Protocol: (§1) The mini-pigs had two central venous catheters inserted which were used for intra venous (i.v.) dosing and bloodsampling. Compound was dissolved in 50 mM K2HPO4, 0.05% tween 80, pH=8.0 to a concentration of 180 nmol/ml. The pigs were dosed with 6 nmol compound/kg body weight. […] The blood samples were collected into test tubes containing EDTA buffer for stabilization and kept on ice for max. 20 minutes before centrifugation. The centrifugation procedure to separate plasma was; 4° C., 3000 rpm for 10 minutes. Plasma were collected and immediately transferred to Micronic tubes stored at −20° C. until assayed.
An additional mini-pig PK assay was used for measuring PK of the compounds of the invention. […] The animals had two central venous catheters inserted which were used for intra venous (i.v.) dosing and blood sampling. Compounds were dissolved in 10 mM Na2HPO4, 150 mM NaCl, 0.01% tween 80, pH=4.0 to concentrations in the range of 40 nmol/ml to 200 nmol/ml. The mini-pigs were dosed i.v. with 10 nmol compound/kg body weight, occasionally other doses such as 4 nmol/kg, 30 nmol/kg or 50 nmol/kg were administered. Each compound was dosed to 3 or 4 mini-pigs, and two compounds may be given simultaneously to the same animal. Blood were sampled pre-dose and 12 times during the first 10 hours post-dose. Blood were furthermore sampled once daily until 13 days post dosing. The blood samples were collected into test tubes containing EDTA buffer, trasylol and Val-Pyr for stabilization and kept on ice for max. 20 minutes. Samples were centrifuged at 4° C., 2000G for 10 minutes to separate plasma. Plasma were collected and immediately transferred to Micronic tubes stored at −20° C. until assayed.
Plasma samples were analysed by LC-MS on an LTQ-Orbitrap (ThermoFisher Scientific, Bremen) to which Accela HPLC pumps and an autosampler were connected (both from ThermoFisher). […] HPLC was performed on a Jupiter Proteo column (4μ) 90A (50×2.0 mm ID). […] The flow rate was 0.3 ml/min. For analysis of plasma samples, 30 μl plasma was precipitated with 90 μl ethanol. […] The heptane phase was removed after 5 min and the remaining solution was analysed by LC-MS as described above. For construction of plasma standards, compound was spiked to plasma (minipig) at the following concentrations: 1 nM, 2 nM, 5 nM, 10 nM, 20 nM, 50 nM, 100 nM, 200 nM. The plasma standards were treated as the samples. The lower limit of quantification was estimated to 2 nM.
Non-compartmental analysis (NCA): Plasma concentration-time profiles were analyzed by non-compartmental pharmacokinetics analysis (NCA) using WinNonlin Professional 5.0 (Pharsight Inc., Mountain View, Calif., USA). NCA was performed using the individual plasma concentration-time profiles from each animal.
For determination of plasma concentration of the PYY and PP peptide derivative or analogues thereof the following Methods 1-4 were used.
as §1, with “bloodsampling. The compound” for “bloodsampling. Compound”, “to an appropriate” for “to a”, “concentration (e.g. 25-500 nmol/mL).” for “concentration of 180 nmol/ml.”, “dosed intravenously (i.v.) or subcutaneously (s.c.)” for “dosed”, “with between 1 and 30” for “with 6”, “buffer (with Aprotinin 15000 KIE/mL and Val-Pyr 0.30 mM)” for “buffer”
An additional mini-pig PK assay was used for measuring PK of the compounds of the invention. […] The animals had two central venous catheters inserted which were used for intra venous (i.v.) dosing and blood sampling.

[2] = target: T1, Y2 receptor (UniProt P49146 1-381, limits assumed); assay: cell-based or functional assay
T1 sequence (looked up): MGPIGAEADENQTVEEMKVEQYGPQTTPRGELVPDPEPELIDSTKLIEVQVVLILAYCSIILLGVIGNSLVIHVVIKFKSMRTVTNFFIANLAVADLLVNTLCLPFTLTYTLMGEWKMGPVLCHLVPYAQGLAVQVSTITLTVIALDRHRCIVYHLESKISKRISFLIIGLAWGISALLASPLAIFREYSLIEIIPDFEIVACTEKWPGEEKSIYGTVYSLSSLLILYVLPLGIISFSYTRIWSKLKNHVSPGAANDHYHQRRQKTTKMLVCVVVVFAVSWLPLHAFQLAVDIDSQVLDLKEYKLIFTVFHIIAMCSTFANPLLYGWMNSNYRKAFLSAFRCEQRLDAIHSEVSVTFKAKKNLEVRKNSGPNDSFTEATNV

[3] = target: Y4 receptor (UniProt P50391 1-375, limits assumed); assay: cell-based or functional assay
Y4 receptor, sequence (P50391 whole entry): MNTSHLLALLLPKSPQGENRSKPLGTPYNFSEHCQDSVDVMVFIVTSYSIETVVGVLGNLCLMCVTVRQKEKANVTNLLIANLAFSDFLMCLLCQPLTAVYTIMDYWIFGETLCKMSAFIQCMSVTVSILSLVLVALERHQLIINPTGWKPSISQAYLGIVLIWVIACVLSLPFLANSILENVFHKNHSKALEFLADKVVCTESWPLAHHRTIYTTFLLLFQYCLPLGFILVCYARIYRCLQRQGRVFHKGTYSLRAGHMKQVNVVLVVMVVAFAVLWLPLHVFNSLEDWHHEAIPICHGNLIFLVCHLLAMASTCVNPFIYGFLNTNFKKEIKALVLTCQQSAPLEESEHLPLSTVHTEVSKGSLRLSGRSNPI

With `CC[C@H](C)[C@H](NC(=O)[C@H](Cc1ccc(O)cc1)NC(=O)[C@H](CCCNC(=N)N)NC(=O)[C@H](CCCNC(=N)N)NC(=O)[C@H](CC(C)C)NC(=O)[C@H](CC(=O)O)NC(=O)[C@H](C)NC(=O)[C@H](C)NC(=O)[C@H](Cc1ccc(O)cc1)NC(=O)[C@H](CCC(N)=O)NC(=O)[C@H](C)NC(=O)[C@H](CC(C)C)NC(=O)[C@H](CCC(N)=O)NC(=O)[C@H](CCC(=O)O)NC(=O)[C@@H]1CCCN1C(=O)[C@H](CCCCNC(=O)COCCOCCNC(=O)COCCOCCNC(=O)CC[C@H](NC(=O)[C@H]1CC[C@H](CNC(=O)CCCCCCCCCCCCCCCCCCC(=O)O)CC1)C(=O)O)NC(=O)[C@H](C)NC(=O)[C@H](CC(N)=O)NC(=O)[C@H](CC(=O)O)NC(=O)CNC(=O)[C@@H]1CCCN1C(=O)[C@H](Cc1ccc(O)cc1)NC(=O)[C@@H](NC(=O)[C@@H]1CCCN1C(=O)[C@H](CCC(=O)O)NC(=O)[C@H](CC(C)C)NC(=O)[C@@H]1CCCN1C(=O)[C@H](C)N)C(C)C)C(=O)N[C@@H](CC(N)=O)C(=O)N[C@@H](CC(C)C)C(=O)N[C@@H](CC(C)C)C(=O)N[C@H](C(=O)N[C@@H](CCCNC(=N)N)C(=O)N[C@@H](CCC(N)=O)C(=O)N[C@@H](CCCNC(=N)N)C(=O)N[C@@H](Cc1ccc(O)cc1)C(=O)O)[C@@H](C)O` [SEQ ID NO: 74, N-epsilon13-[2-(2-{2-[2-(2-{2-[(S)-4-Carboxy-4-({trans-4-[(19-carboxynonadecanoylamino)methyl]cyclohexanecarbonyl}amino)butyrylamino]-ethoxy}ethoxy)acetylamino]ethoxy}ethoxy)acetyl][Leu17,Lys13,Gln34]hPP1-36 acid] (H-APLEPVYPGDNAK([AEEA-AEEA-γGlu-Trx-C20 diacid])PEQLAQYAADLRRYINLLTRQRY-OH; N-terminus assumed) as the molecule, how does the half-life ([1]; 16 nmol/kg) read?
The half-life was 8 h.

With `CC[C@H](C)[C@H](NC(=O)[C@H](Cc1ccc(O)cc1)NC(=O)[C@H](CCCNC(=N)N)NC(=O)[C@H](CCCCNC(=O)COCCOCCNC(=O)COCCOCCNC(=O)CC[C@H](NC(=O)[C@H]1CC[C@H](CNC(=O)CCCCCCCCCCCCCCCCCCC(=O)O)CC1)C(=O)O)NC(=O)[C@H](CC(C)C)NC(=O)[C@H](CC(=O)O)NC(=O)[C@H](C)NC(=O)[C@H](C)NC(=O)[C@H](Cc1ccc(O)cc1)NC(=O)[C@H](CCC(N)=O)NC(=O)[C@H](C)NC(=O)[C@H](CC(C)C)NC(=O)[C@H](CCC(N)=O)NC(=O)[C@H](CCC(=O)O)NC(=O)[C@@H]1CCCN1C(=O)[C@@H](NC(=O)[C@H](C)NC(=O)[C@H](CC(N)=O)NC(=O)[C@H](CC(=O)O)NC(=O)CNC(=O)[C@@H]1CCCN1C(=O)[C@H](Cc1ccc(O)cc1)NC(=O)[C@@H](NC(=O)[C@@H]1CCCN1C(=O)[C@H](CCC(=O)O)NC(=O)[C@H](CC(C)C)NC(=O)[C@@H]1CCCN1C(=O)[C@H](C)N)C(C)C)[C@@H](C)O)C(=O)N[C@@H](CC(N)=O)C(=O)N[C@@H](CC(C)C)C(=O)N[C@@H](CC(C)C)C(=O)N[C@H](C(=O)N[C@@H](CCCNC(=N)N)C(=O)N1CCC[C@H]1C(=O)N[C@@H](CCCNC(=N)N)C(=O)N[C@@H](Cc1ccc(O)cc1)C(N)=O)[C@@H](C)O` [SEQ ID NO: 71, N-epsilon25-[2-(2-{2-[2-(2-{2-[(S)-4-Carboxy-4-({trans-4-[(19-carboxynonadecanoylamino)methyl]cyclohexanecarbonyl}amino)butyrylamino]-ethoxy}ethoxy)acetylamino]ethoxy}ethoxy)acetyl][Leu17,Lys25,Leu30]hPP1-36] (H-APLEPVYPGDNATPEQLAQYAADLK([AEEA-AEEA-γGlu-Trx-C20 diacid])RYINLLTRPRY-NH2) as the molecule, how does the half-life ([1]; in vivo, 13 nmol/kg) read?
The half-life was 13 h.

For `CC[C@H](C)[C@H](NC(=O)[C@H](Cc1ccc(O)cc1)NC(=O)[C@H](CCCNC(=N)N)NC(=O)[C@H](CCCNC(=N)N)NC(=O)[C@H](CC(C)C)NC(=O)[C@H](CC(=O)O)NC(=O)[C@H](C)NC(=O)[C@H](C)NC(=O)[C@H](Cc1ccc(O)cc1)NC(=O)[C@H](CCC(N)=O)NC(=O)[C@H](C)NC(=O)[C@H](CC(C)C)NC(=O)[C@H](CCC(N)=O)NC(=O)[C@H](CCC(=O)O)NC(=O)[C@@H]1CCCN1C(=O)[C@@H](NC(=O)[C@H](C)NC(=O)[C@H](CC(N)=O)NC(=O)[C@H](CCCCNC(=O)COCCOCCNC(=O)COCCOCCNC(=O)CC[C@H](NC(=O)[C@H]1CC[C@H](CNC(=O)CCCCCCCCCCCCCCCCCCC(=O)O)CC1)C(=O)O)NC(=O)CNC(=O)[C@@H]1CCCN1C(=O)[C@H](Cc1ccc(O)cc1)NC(=O)[C@@H](NC(=O)[C@@H]1CCCN1C(=O)[C@H](CCC(=O)O)NC(=O)[C@H](CC(C)C)NC(=O)[C@@H]1CCCN1)C(C)C)[C@@H](C)O)C(=O)N[C@@H](CC(N)=O)C(=O)N[C@@H](CC(C)C)C(=O)N[C@@H](CC(C)C)C(=O)N[C@H](C(=O)N[C@@H](CCCNC(=N)N)C(=O)N[C@@H](CCC(N)=O)C(=O)N[C@@H](CCCNC(=N)N)C(=O)N[C@@H](Cc1ccc(O)cc1)C(N)=O)[C@@H](C)O` [SEQ ID NO: 39, N-epsilon10-[2-(2-{2-[2-(2-{2-[(S)-4-Carboxy-4-({trans-4-[(19-carboxynonadecanoylamino)methyl]cyclohexanecarbonyl}amino)butyrylamino]-ethoxy}ethoxy)acetylamino]ethoxy}ethoxy)acetyl][Lys10,Leu17,Leu30,Gln34]hPP2-36] (H-PLEPVYPGK([AEEA-AEEA-γGlu-Trx-C20 diacid])NATPEQLAQYAADLRRYINLLTRQRY-NH2; N-terminus and C-terminus assumed), which half-life ([1]; in vivo, 4 nmol/kg) is on record?
Its half-life is 32 h.

Which “Y2 cAMP EC50” value [2] does the source give for PLEPVYPGK([AEEA-AEEA-γGlu-Trx-C20 diacid])NATPEQLAQYAADLRRYINLLTRQRY (ends and bridges not checked) here?
Its value is 25 nM.

B1: N-alfa-[2-(2-{2-[2-(2-{2-[(S)-4-Carboxy-4-({trans-4-[(19-carboxynonadecanoylamino)methyl]cyclohexanecarbonyl}amino)butyrylamino]-ethoxy}ethoxy)acetylamino]ethox … (peptide)
peptide: PLEPVYPGDNATPEQLAQYAADLRRYINLLTRPRY
modifications: not fully specified (N-terminus); printed as N-alfa-[2-(2-{2-[2-(2-{2-[(S)-4-Carboxy-4-({trans-4-[(19-carboxynonadecanoylamino)methyl]cyclohexanecarbonyl}amino)butyrylamino]-ethoxy}ethoxy)acetylamino]ethoxy}ethoxy)acetyl][Leu17,Leu30]hPP2-36; ends and bridges not checked
With B1 as the molecule, how does the “Y2 cAMP EC50” value [2] read?
The value was > 1000 nM.

Which “Y4 cAMP EC50” value [3] does the source give for APLEPVYPGDNAK([AEEA-AEEA-γGlu-C18 diacid])PEQMAQYAADLRRYINMLTRPRY (ends and bridges not checked) [N-epsilon13-[2-(2-{2-[2-(2-{2-[(S)-4-Carboxy-4-(17-carboxyheptadecanoylamino)butyrylamino]ethoxy}ethoxy)acetylamino]-ethoxy}ethoxy)acetyl][Lys13]hPP(1-36) (as …, listing 1 of 2 here] here?
Its value is 2 nM.

Which “Y4 cAMP EC50” value [3] does the source give for APLEPVYPGDNAK([AEEA-AEEA-γGlu-C18 diacid])PEQMAQYAADLRRYINMLTRPRY (ends and bridges not checked) [N-epsilon13-[2-(2-{2-[2-(2-{2-[(S)-4-Carboxy-4-(17-carboxyheptadecanoylamino)butyrylamino]ethoxy}ethoxy)acetylamino]-ethoxy}ethoxy)acetyl][Lys13]hPP(1-36) (as …, listing 2 of 2 here] here?
Its value is 4 nM.

For {C18 diacid-γGlu-AEEA-AEEA}-PLEPVYPGDNATPEQLAQYAADLRRYINLLTRPRY (ends and bridges not checked), which “Y2 cAMP EC50” value [2] is on record?
The value was > 1000 nM.
